The text below walks through data of publication PMC5442324, “Zinc is a potent and specific inhibitor of IFN-λ3 signalling” (Nature Communications, 2017).

For one data set, the target named is IFN-α (Roferon-A) (UniProt P01563). Description: zinc IMAC resin binding and SDS-PAGE; 200 ng IFN-α or IFN-λ3 on IMAC-Select gel charged with ZnSO4, 4 °C, 50 mM NaH2PO4, 300 mM NaCl, pH 8.0; eluted with 100 mM EDTA; SDS-PAGE, SYPRO ruby; bands read as monomer and dimer.
Data set [1] concerns the molecule itself. The description is as above.

As to “IFN-α (Roferon-A) (from UniProt P01563 24-188) (ligand)”, in the data set with IFN-α (Roferon-A), the stoichiometry N came to 2.

B1: recombinant human IFN-λ3 (ligand, UniProt Q8IZI9 22-196, looked up)
chain: VPVARLRGALPDARGCHIAQFKSLSPQELQAFKRAKDALEESLLLKDCKCRSRLFPRTWDLRQLQVRERPVALEAELALTLKVLEATADTDPALGDVLDQPLHTLHHILSQLRACIQPQPTAGPRTRGRLHHWLHRLQEAPKKESPGCLEASVTFNLFRLLTRDLNCVASGDLCV
notes: IFN-λ3 (interferon lambda 3), human, recombinant, R&D Systems; (Cys169); also called interferon lambda 3; IFNL3; source: bought: R&D Systems
As for B1, the “stoichiometry N” value in data set [1] turned out to be 2.

By stoichiometry N is commonly meant the number of molecules, sites or subunits per partner or assembly.
